Measured values reported in patent US10829540 (AstraZeneca / MedImmune, dated 2020).

T1: human P2X4 (human, UniProt Q99571 1-388)
T1 sequence (looked up): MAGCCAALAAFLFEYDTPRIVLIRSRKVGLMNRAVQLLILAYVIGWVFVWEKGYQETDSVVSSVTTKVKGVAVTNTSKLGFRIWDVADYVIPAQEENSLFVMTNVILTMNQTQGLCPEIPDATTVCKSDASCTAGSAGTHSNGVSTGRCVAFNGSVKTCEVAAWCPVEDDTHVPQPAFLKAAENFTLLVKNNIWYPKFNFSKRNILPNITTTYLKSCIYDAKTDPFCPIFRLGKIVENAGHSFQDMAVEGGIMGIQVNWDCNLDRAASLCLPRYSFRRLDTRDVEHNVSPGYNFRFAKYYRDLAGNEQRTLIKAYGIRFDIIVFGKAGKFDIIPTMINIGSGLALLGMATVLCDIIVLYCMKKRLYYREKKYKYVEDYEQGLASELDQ

B1: Antibody 4 (antibody, V domains shown)
VH: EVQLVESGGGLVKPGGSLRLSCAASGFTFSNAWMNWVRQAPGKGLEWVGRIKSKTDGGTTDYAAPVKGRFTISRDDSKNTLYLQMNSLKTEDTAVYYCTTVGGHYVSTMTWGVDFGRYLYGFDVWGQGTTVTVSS
VL: QSVLTQPPSVSLSPGQTARITCSGDVLSKQFGYWYQQKPGQAPVVVIYNDSERPSGIPERFSGSSSGTTVTLTITGVQAEDEADYYCQSADSSGTVLFGGGTKLTVL
B2: Antibody 1 (antibody, V domains shown)
VH: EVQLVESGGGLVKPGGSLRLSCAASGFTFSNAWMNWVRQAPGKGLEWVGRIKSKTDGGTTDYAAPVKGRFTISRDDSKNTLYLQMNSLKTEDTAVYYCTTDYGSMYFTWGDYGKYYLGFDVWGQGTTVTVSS
VL: SYVLTQPPSVSVSPGQTATITCSGDTLPQRYAYWYQQKPGQAPILLIYKDSERPSGIPDRFSGSSSGTTVALTISGVQAEDEADYYCQSTDTSGVVFGGGTKVTVL
B3: Antibody 3 (antibody, V domains shown)
VH: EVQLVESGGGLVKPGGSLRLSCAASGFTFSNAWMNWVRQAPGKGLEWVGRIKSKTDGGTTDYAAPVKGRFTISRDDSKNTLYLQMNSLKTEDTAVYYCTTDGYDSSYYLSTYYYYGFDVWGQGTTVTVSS
VL: SSELTQDPAASVALGQTVTITCQGDSLRSYYASWYQQKPGQAPVLVFYGKNIRPSGIPDRFSGSDSRDTASLTITGAQADDEADYYCNSRDTSGNVVFGGGTKVTVL

Assays:
human P2X4 [1] = target: T1, human P2X4; test: cell-based or functional assay
human P2X4 [2] = target: T1, human P2X4; test: cell-based or functional assay; remark: listed apart in the source

Row | Binder | IC50, inhibition of human P2X4 currents in electrophysiology (human P2X4 [1]) [nM] | IC50 (nM), inhibition of human P2X4 currents in electrophysiology (human P2X4 [2]) [nM]
1 | B1 | 3.8 | 3.9
2 | B2 | – | 19.6
3 | B3 | – | 50
